Laboratory results: paper PMC3058826 (Nature, 2010)

Biological target: T1, TRIM24 PHD-Bromo C840W (human, UniProt O15164 824-1006, C840W)
T1 sequence: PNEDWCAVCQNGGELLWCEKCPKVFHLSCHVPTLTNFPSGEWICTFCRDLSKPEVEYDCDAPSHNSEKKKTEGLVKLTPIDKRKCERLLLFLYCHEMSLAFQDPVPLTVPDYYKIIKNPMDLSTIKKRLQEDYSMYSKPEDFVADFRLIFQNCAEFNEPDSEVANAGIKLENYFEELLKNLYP
Assay: ITC

With ARTKQTARKSTGGKA [H3(1–15)K4 peptide] the Kd was > 400 µM.
